The results in this text go back to publication PMC9680732.

The target of the test is singly biotinylated A20 zinc finger 4 (ZnF4: S592-K635) (human) (UniProt P21580). The test can be described thus: BLI.
Chain of singly biotinylated A20 zinc finger 4 (ZnF4: S592-K635) (human) (P21580 592-635): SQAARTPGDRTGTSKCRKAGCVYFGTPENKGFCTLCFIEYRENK

As for “K63-linked triubiquitin (from UniProt P0CG48 1-76)”, the Kd came to 2000 nM.
